Results from FireProtDB (doi:10.1021/bi011146t).
Several values for one entry are separate records, joined by “and”; a condition that tells them apart may be missing. Equal values may be shown once.

Conditions: Archaeoglobus fulgidus (strain ATCC 49558 / DSM 4304 / JCM 9628 / NBRC 100126 / VC-16), pH 7.5, CD, sodium phosphate 20 mM, reversible: no, whole UniProt chain shown

B1: wild type, O28558 (protein)
chain: MLDMPIDPVYYQLAEYFDSLPKFDQFSSAREYREAINRIYEERNRQLSQHERVERVEDRTIKGRNGDIRVRVYQQKPDSPVLVYYHGGGFVICSIESHDALCRRIARLSNSTVVSVDYRLAPEHKFPAAVYDCYDATKWVAENAEELRIDPSKIFVGGDSAGGNLAAAVSIMARDSGEDFIKHQILIYPVVNFVAPTPSLLEFGEGLWILDQKIMSWFSEQYFSREEDKFNPLASVIFADLENLPPALIITAEYDPLRDEGEVFGQMLRRAGVEASIVRYRGVLHGFINYYPVLKAARDAINQIAALLVFD
With B1 the denaturant m value (20 °C, Urea) was 1.65 kcal/mol/M, the “denaturant midpoint (higher = more stable)” value (20 °C, Urea) was 7.1 M and the unfolding free energy (20 °C, Urea) was 11.7 kcal/mol. For the same protein, the “unfolding enthalpy (van 't Hoff)” value (Thermal) was 103 kcal/mol and 95.6 kcal/mol and 90.8 kcal/mol.
